Assay results taken from US20040126860.

Target: purified complex of human cardiac RLC, human ventricular ELC and the β-myosin heavy chain light chain binding fragment (aa778-840), P10916
Sequence (P10916 2-166, chain 1 of 3): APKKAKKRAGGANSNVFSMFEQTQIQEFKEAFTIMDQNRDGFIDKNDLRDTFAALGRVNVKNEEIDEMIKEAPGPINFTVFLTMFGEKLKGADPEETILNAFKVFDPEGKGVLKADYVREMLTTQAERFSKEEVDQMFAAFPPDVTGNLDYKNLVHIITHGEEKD
Sequence (chain, as listed by the source, chain 2 of 3): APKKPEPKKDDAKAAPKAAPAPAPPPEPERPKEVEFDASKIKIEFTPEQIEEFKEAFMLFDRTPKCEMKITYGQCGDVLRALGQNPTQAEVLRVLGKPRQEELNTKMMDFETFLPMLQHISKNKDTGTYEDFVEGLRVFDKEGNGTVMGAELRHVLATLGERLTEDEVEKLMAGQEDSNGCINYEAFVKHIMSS
Sequence (chain, as listed by the source, chain 3 of 3): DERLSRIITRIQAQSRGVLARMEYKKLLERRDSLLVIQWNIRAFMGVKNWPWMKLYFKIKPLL

Protein | K, (printed so; presumably Km) [µM] | Vmax (pmoles min^-1 ng^-1)
mutant human cMLCK (ala 87 val, ala 95 glu), full length, with amino-terminal FLAG tag (protein) MATENGAVELGIQNPSTDKAPKGPTGERPLAAGKDPGPPDPKKAPDPPTLKKDAKAPASEKGDGTLAQPSTSSQGPKGEGDRGGGPVEGSAGPPEALPQQTATPETSVKKPKAEQGASGSQDPGKPRVGKKAAEGQAAARRGSPAFLHSPSCPAIISSSEKLLAKKPPSEASELTFEGVPMTHSPTDPRPAKAEEGKNILAESQKEVGEKTPGQAGQAKMQGDTSRGIEFQAVPSEKSEVGQALCLTAREEDCFQILDDCPPPPAPFPHRMVELRTGNVSSEFSMNSKEALGGGKFGAVCTCMEKATGLKLAAKVIKKQTPKDKEMVLLEIEVMNQLNHRNLIQLYAAIETPHEIVLFMEYIEGGELFERIVDEDYHLTEVDTMVFVRQICDGILFMHKMRVLHLDLKPENILCVNTTGHLVKIIDFGLARRYNPNEKLKVNFGTPEFLSPEVVNYDQISDKTDMWSMGVITYMLLSGLSPFLGDDDTETLNNVLSGNWYFDEETFEAVSDEAKDFVSNLIVKDQRARMNAAQCLAHPWLNNLAEKAKRCNRRLKSQILLKKYLMKRRWKKNFIAVSAANRFKKISSSGALMALGV | 17 | 216
human cardiac myosin light chain kinase (cMLCK), full length, wild type, with amino-terminal FLAG tag (protein) MATENGAVELGIQNPSTDKAPKGPTGERPLAAGKDPGPPDPKKAPDPPTLKKDAKAPASEKGDGTLAQPSTSSQGPKGEGDRGGGPAEGSAGPPAALPQQTATPETSVKKPKAEQGASGSQDPGKPRVGKKAAEGQAAARRGSPAFLHSPSCPAIISSSEKLLAKKPPSEASELTFEGVPMTHSPTDPRPAKAEEGKNILAESQKEVGEKTPGQAGQAKMQGDTSRGIEFQAVPSEKSEVGQALCLTAREEDCFQILDDCPPPPAPFPHRMVELRTGNVSSEFSMNSKEALGGGKFGAVCTCMEKATGLKLAAKVIKKQTPKDKEMVLLEIEVMNQLNHRNLIQLYAAIETPHEIVLFMEYIEGGELFERIVDEDYHLTEVDTMVFVRQICDGILFMHKMRVLHLDLKPENILCVNTTGHLVKIIDFGLARRYNPNEKLKVNFGTPEFLSPEVVNYDQISDKTDMWSMGVITYMLLSGLSPFLGDDDTETLNNVLSGNWYFDEETFEAVSDEAKDFVSNLIVKDQRARMNAAQCLAHPWLNNLAEKAKRCNRRLKSQILLKKYLMKRRWKKNFIAVSAANRFKKISSSGALMALGV | 6 | 115
